Laboratory results published in PMC4295097.

Molecular target: meditope-enabled trastuzumab
Experiment: SPR

Row | Kd [nM] | kon [M⁻¹ s⁻¹] | Substance
1 | 0.18 | – | meditope-protein L construct with six-residue linker GGGGSE (designed binder)
2 | 1.3 | – | meditope-protein L construct with three-residue linker PSE (designed binder)

Second part, the substance before the results:

Row | Substance | Kd [nM] | kon [M⁻¹ s⁻¹]
3 | meditope-protein L construct with six-residue linker GGPGSE (designed binder) | 0.18 | –
4 | meditope-protein L construct with six-residue linker PPPGPP (designed binder) | 1.1 | –
5 | meditope-protein L construct with zero length linker (designed binder) | 170 | 160000
